System: T1, Bli1904II restriction endonuclease (Bacillus licheniformis)
T1 sequence: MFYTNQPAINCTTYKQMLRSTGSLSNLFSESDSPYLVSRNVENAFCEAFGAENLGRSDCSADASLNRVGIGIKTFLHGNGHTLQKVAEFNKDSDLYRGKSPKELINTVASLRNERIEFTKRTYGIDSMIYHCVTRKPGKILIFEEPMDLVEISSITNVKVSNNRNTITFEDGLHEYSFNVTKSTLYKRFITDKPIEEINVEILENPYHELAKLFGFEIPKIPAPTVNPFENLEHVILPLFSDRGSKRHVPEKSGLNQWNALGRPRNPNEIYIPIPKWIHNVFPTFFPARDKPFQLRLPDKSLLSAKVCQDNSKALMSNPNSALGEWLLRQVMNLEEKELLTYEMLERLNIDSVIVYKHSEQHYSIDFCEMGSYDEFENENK
Test: cell_activity

Substance | activity (transformants per ug DNA) (methylated by M.Bli1904II at GCNGC (C5-cytosine type, position not stated), methylated plasmid not restricted in SJ1904, 7.2e3 in deletion strain MDT269) | activity (transformants per ug DNA) (restriction of unmethylated plasmid in SJ1904, 6.4e3 in Bli1904II deletion strain MDT269, site inferred from cognate methylase)
GCNGC (double strand) [pCJ791 plasmid GCNGC sites, M.Bli1904II-methylated] | 16000 | 
GCNGC (double strand) [pCJ791 plasmid GCNGC sites, unmethylated] |  | 17

Reference: patent US20100055739
